Holding throughout (experiment): SPR, Ab captured, ECD-His analyte
Assay [1] deals with T1, human SIRPγ extracellular domain + His-tag (NP_061026.2) (human, UniProt Q9P1W8 29-360).
T1 construct: also called hSIRPγ; HuSIRPγ
Here is the method:
(§1) The binding affinity of anti-SIRPα antibodies to the various SIRPα analytes is determined by surface plasmon resonance (SPR) using a ProteOn XPR36 (Bio-Rad). The running buffer for this experiment and all dilutions (except where stated) are done in 1×HBS-EP+. […] The sensorchip is deactivated with 1M ethanolamine HCl for 420 sec at a flowrate of 10 μl/min.
(§2) The analyte is injected over the captured antibody for 300 sec at a flowrate of 30 μl/min. The dissociation is done for 600 sec. Two-fold serial dilutions of each SIRP protein (Extracellular Domain+His-Tag) are injected as analyte with the highest concentrations indicated in table 36 below.

Assay [2] has as its target T2, human SIRPβ1 extracellular domain + His-tag (NP_006056.2) (human, UniProt O00241 30-371).
T2 construct: also called hSIRPβ1; HuSIRPβ1
The method, then: as §1, §2

Assay [3] deals with T3, human SIRPβL/SIRPβ1v3 extracellular domain + His-tag (NP_001129316.1) (human, UniProt Q5TFQ8 30-371).
T3 construct: also called hSIRPβ1v3; HuSIRPβ1v3
The method, then:
as §1, §2

In assay [4] the target is T4, cynomolgus SIRPα extracellular domain + His-tag (XP_015313155) (cynomolgus monkey).
T4 construct: also called CySIRPα XP_015313155; cynoSIRPα
T4 chain: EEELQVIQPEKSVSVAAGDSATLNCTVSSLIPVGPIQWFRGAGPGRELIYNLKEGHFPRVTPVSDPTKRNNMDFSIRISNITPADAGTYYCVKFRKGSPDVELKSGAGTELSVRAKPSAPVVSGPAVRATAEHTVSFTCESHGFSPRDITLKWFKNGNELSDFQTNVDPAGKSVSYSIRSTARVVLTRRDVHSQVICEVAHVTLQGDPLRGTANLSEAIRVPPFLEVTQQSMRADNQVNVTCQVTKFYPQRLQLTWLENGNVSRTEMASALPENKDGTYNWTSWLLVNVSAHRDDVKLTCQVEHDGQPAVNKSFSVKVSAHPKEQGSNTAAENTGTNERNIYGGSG
Here is the method: as §1, §2

The target of assay [5] is T5, cynomolgus SIRPγ extracellular domain + His-tag (XP_005568591) (cynomolgus monkey, UniProt Q9P1W8 29-359 (human entry)).
T5 construct: also called Cyno SIRPγ; cynoSIRPγ
T5 chain: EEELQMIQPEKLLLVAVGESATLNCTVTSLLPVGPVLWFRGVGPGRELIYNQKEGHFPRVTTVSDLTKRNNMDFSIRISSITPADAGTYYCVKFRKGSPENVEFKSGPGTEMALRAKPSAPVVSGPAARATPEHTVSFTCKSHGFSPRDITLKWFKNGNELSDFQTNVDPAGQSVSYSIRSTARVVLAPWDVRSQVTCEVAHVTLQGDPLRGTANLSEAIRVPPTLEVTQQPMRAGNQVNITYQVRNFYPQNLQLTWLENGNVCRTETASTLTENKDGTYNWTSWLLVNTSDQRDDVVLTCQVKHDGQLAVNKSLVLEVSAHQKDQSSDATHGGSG
Here is the method:
as §1, §2

The target of assay [6] is T6, cynomolgus SIRPβ1 extracellular domain + His-tag (XP_005568598) (cynomolgus monkey).
T6 construct: also called Cyno SIRPβ1; cynoSIRPβ1
T6 chain: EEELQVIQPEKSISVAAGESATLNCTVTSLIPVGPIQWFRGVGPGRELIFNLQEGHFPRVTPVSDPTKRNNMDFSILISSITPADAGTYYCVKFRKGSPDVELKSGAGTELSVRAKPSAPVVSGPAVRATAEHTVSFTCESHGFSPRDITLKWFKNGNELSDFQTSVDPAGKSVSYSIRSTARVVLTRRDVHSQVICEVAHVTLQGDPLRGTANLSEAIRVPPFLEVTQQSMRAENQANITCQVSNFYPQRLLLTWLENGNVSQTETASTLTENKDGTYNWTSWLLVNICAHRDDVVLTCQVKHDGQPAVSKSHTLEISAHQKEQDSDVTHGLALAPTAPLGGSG
The method, then:
as §1, §2

Assay [7] deals with T7, cynomolgus SIRPβ1v3 extracellular domain + His-tag (XP_005568593) (cynomolgus monkey).
T7 construct: also called Cyno SIRPβ1v3; cynoSIRPβ1v3
T7 chain: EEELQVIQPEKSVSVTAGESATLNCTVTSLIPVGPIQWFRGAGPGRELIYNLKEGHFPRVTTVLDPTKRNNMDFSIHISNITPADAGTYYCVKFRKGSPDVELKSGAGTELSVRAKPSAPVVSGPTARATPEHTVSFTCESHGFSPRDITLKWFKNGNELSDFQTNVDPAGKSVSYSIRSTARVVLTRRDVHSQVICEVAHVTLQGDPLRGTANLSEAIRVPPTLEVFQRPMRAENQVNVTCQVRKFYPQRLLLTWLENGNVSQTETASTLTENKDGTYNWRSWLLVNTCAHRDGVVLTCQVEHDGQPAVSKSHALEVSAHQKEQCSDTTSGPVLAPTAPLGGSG
Here is the method:
as §1, §2

In assay [8] the target is T8, cynomolgus SIRPα extracellular domain + His-tag (EGM_02252) (cynomolgus monkey).
T8 construct: also called CySIRPα EGM_02252; cynoSIRPα
T8 chain: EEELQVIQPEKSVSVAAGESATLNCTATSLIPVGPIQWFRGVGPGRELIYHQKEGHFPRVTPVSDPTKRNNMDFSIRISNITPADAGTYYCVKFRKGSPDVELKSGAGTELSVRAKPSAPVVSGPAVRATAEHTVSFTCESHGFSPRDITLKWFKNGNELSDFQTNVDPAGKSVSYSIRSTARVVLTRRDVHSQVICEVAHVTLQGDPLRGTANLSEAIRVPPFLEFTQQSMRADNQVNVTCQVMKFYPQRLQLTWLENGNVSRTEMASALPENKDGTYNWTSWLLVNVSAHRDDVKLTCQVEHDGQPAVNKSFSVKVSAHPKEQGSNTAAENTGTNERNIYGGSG
Here is the method: as §1, §2

Among the data in patent publication US20230012273A1 (Boehringer Ingelheim, published 2023) are binding result and Kd values, retold here.

T2 sequence (O00241 other isoform, or with tags, fused parts or gaps): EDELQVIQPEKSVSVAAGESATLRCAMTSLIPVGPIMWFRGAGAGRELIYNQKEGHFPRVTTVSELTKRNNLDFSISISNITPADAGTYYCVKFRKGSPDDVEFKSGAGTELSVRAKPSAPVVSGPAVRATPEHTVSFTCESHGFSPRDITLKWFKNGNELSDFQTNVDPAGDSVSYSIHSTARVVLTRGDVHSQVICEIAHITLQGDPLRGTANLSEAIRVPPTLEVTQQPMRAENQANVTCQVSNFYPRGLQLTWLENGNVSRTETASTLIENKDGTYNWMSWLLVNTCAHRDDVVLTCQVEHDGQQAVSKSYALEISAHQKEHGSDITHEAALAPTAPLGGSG
T1 sequence (Q9P1W8 29-360): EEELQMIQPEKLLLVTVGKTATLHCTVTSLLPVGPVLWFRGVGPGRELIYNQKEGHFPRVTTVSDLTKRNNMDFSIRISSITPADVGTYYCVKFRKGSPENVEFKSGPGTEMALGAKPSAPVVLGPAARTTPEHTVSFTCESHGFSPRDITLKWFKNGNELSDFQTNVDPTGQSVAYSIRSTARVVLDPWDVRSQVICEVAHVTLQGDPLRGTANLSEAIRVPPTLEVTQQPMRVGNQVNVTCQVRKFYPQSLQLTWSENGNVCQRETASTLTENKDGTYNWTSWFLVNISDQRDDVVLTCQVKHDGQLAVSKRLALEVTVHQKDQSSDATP
T3 sequence (Q5TFQ8 other isoform, or with tags, fused parts or gaps): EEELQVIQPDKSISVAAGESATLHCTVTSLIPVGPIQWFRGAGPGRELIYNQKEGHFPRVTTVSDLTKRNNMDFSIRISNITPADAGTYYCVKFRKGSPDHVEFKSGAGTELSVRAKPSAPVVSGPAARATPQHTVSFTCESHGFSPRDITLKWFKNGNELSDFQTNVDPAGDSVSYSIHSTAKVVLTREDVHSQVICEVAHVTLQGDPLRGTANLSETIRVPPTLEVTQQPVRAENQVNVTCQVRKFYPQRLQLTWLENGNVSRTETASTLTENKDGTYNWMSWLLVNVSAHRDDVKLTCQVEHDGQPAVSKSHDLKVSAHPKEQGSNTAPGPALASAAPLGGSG

B1: Antibody A1 (antibody, human IgG1, kappa, L234A L235A, V domains shown)
VH: EVQLVESGGGLVQPGGSLRLSCAASGFTLSSYDMHWVRQAPGKGLEWVSAIGTAGDTYYTGSVKGRFTISRENAKNSLYLQMNSLRADDTAVYYCVRGGVWDDAFDIWGQGTMVTVSS
VL: DIQMTQSPSSLSASVGDRVTITCRASQGINNYAAWFQQKPGKAPKSLIYTASSLHSGVPSKFSGSGSGTDFTLTISSLQPEDFATYYCQQYVSYPYTFGQGTKLEIKR
notes: also called Antibody Al
Take B1: the binding result in assay [1] is recorded as “no binding (tested: 1000 nM)”; in assay [2] it was “no binding (tested: 1000 nM)”; in assay [3], “no binding (tested: 100 nM)”; in assay [5], “no binding (tested: 1000 nM)”; in assay [6], “no binding (tested: 1000 nM)”. The Kd is 369 nM in assay [4], 557 nM in assay [7] and 543 nM in assay [8].

B2: Antibody A3 (antibody, human IgG1, kappa, L234A L235A, V domains shown)
VH: EVQLVESGGGLVQPGGSLRLSCAASGFTLSSYDMHWVRQATGKGLEWVSAIGTAGDTYYTGSVKGRFTISRENAKNSLYLQMNSLRASDTAVYYCVRGGVWDDAFDIWGQGTMVTVSS
VL: DIQMTQSPSSLSASVGDRVTITCRASQGINNYAAWFQQKPGKAPKSLIYTASSLHSGVPSKFSGSGSGTDFTLTISSLQPEDFATYYCQQYVSYPYTFGQGTKLEIKR
Regarding B2, the binding result in assay [1] is on record as “no binding (tested: 1000 nM)”; in assay [3], “no binding (tested: 100 nM)”; in assay [5] it was “no binding (tested: 1000 nM)”; in assay [6] it was “no binding (tested: 1000 nM)”. The Kd in assay [2] is 70.3 nM; in assay [4] it was 438 nM; in assay [7], 564 nM; in assay [8], 571 nM.

B3: Antibody A7 (antibody, human IgG1, kappa, L234A L235A, V domains shown)
VH: EVQLVESGGGLVQPGGSLRLSCAASGFTLSSYDMHWVRQATGKGLEWVSAIGTAGDTYYTGSVKGRFTISRENAKNSLYLQMNSLRAGDTAVYYCVRGGVWDDAFDIWGQGTMVTVSS
VL: DIQMTQSPSSLSASVGDRVTITCRASQGINNYAAWFQQKPGKAPKSLIYTASSLHSGVPSKFSGSGSGTDFTLTISSLQPEDFATYYCQQYVSYPYTFGQGTKLEIKR
For the molecule B3, the binding result is “no binding (tested: 1000 nM)” in assay [1], “no binding (tested: 100 nM)” in assay [3], “no binding (tested: 1000 nM)” in assay [5] and “no binding (tested: 1000 nM)” in assay [6]. Further, the dissociation constant (Kd) in assay [2] worked out at 72.2 nM; in assay [4], 389 nM; in assay [7], 494 nM; in assay [8] it was 609 nM.

B4: Antibody A6 (antibody, human IgG1, kappa, L234A L235A, V domains shown)
VH: EVQLVESGGGLVQPGGSLRLSCAASGFTLSSYDMHWVRQAPGKGLEWVSAIGTAGDTYYTGSVKGRFTISRENAKNSLYLQMNSLRAEDTAVYYCVRGGVWDDAFDIWGQGTMVTVSS
VL: DIQMTQSPSSLSASVGDRVTITCRASQGINNYAAWFQQKPGKAPKSLIYTASSLHSGVPSKFSGSGSGTDFTLTISSLQPEDFATYYCQQYVSYPYTFGQGTKLEIKR
On to B4, for which the binding result is given as “no binding (tested: 1000 nM)” in assay [1], “no binding (tested: 100 nM)” in assay [3], “no binding (tested: 1000 nM)” in assay [5] and “no binding (tested: 1000 nM)” in assay [6]. Besides, the Kd in assay [2] was determined as 65.1 nM; in assay [4], 366 nM; in assay [7] it was 469 nM; in assay [8], 538 nM.

B5: Antibody A8 (antibody, human IgG1, kappa, L234A L235A, V domains shown)
VH: EVQLVESGGGLVQPGGSLRLSCAASGFTLSSYDMHWVRQAPGKGLEWVSAIGTAGDTYYTGSVKGRFTISRENAKNSLYLQMNSLRAGDTAVYYCVRGGVWDDAFDIWGQGTMVTVSS
VL: DIQMTQSPSSLSASVGDRVTITCRASQGINNYAAWFQQKPGKAPKSLIYTASSLHSGVPSKFSGSGSGTDFTLTISSLQPEDFATYYCQQYVSYPYTFGQGTKLEIKR
B5: the binding result in assay [1] is “no binding (tested: 1000 nM)”; in assay [3] it was “no binding (tested: 100 nM)”; in assay [5], “no binding (tested: 1000 nM)”; in assay [6], “no binding (tested: 1000 nM)”. Further, the Kd in assay [2] came out at 69.6 nM; in assay [4], 350 nM; in assay [7] it was 449 nM; in assay [8], 535 nM.

B6: Antibody A2 (antibody, human IgG1, kappa, L234A L235A, V domains shown)
VH: EVQLVESGGGLVQPGGSLRLSCAASGFTLSSYDMHWVRQATGKGLEWVSAIGTAGDTYYTGSVKGRFTISRENAKNSLYLQMNSLRAADTAVYYCVRGGVWDDAFDIWGQGTMVTVSS
VL: DIQMTQSPSSLSASVGDRVTITCRASQGINNYAAWFQQKPGKAPKSLIYTASSLHSGVPSKFSGSGSGTDFTLTISSLQPEDFATYYCQQYVSYPYTFGQGTKLEIKR
Consider B6, for which the binding result in assay [1] is recorded as “no binding (tested: 1000 nM)”; in assay [3], “no binding (tested: 100 nM)”; in assay [5] it was “no binding (tested: 1000 nM)”; in assay [6] it was “no binding (tested: 1000 nM)”. Moreover, the dissociation constant Kd was 77.5 nM in assay [2], 424 nM in assay [4], 552 nM in assay [7] and 584 nM in assay [8].

B7: Antibody A9 (antibody, human IgG1, kappa, L234A L235A, V domains shown)
VH: EVQLVESGGGLVQPGGSLRLSCAASGFTLSSYDMHWVRQAPGKGLEWVSAIGTAGDTYYTGSVKGRFTISRENAKNSLYLQMNSLRADDTAVYYCVRGGVWDDAFDIWGQGTMVTVSS
VL: DIQMTQSPSSLSASVGDRVTITCRASQDINNYLAWFQQKPGKAPKSLIYTASSLHSGVPSKFSGSGSGTDFTLTISSLQPEDFATYYCQQYVSYPYTFGQGTKLEIKR
Consider B7, for which the binding result is recorded as “no binding (tested: 1000 nM)” in assay [1], “no binding (tested: 100 nM)” in assay [3], “no binding (tested: 1000 nM)” in assay [5] and “no binding (tested: 1000 nM)” in assay [6]. Further, the equilibrium dissociation constant (Kd) in assay [2] stood at 58.8 nM; in assay [4], 156 nM; in assay [7], 257 nM; in assay [8] it was 227 nM.
